B1: HDV Ribozyme (parent)
chain: GGCCGGCAUGGUCCCAGCCUCCUCGCUGGCGCCGGCUGGGCAACAUUCCGAGGGGACCGUCCCCUCGGUAAUGGCGAAUGGGACCCA

Variants of: B1
Test: self-cleavage, relative activity (ratio to wild type); higher = more cleavage; co-transcriptional

In order of rising self-cleavage:
1. GGCCGGCAUGGUGCCAGCCUCCUCGCUAGCGCCGGCUGGGCAACAUUCCGAGGGGACCGUCCCCUCGGUAAUGGCGAAUGGGACCCA [C13G G28A]  0
2. GGCCGGCAUGGUCCCAGCCGCCUCGCUGGAGCCGGCUGGGCAACAUUCCGAGGGGACCGUCCCCUCGGUAAUGGCGAAUGGGACCCA [U20G C30A]  0.0378
3. GGCCGGCAUGGUCCCAGCCUCCGCGCUGGCGCCGGCUGGGCAACAUUCCGAGGGGACCGUCCCCUCGGUAAUUGCGAAUGGGACCCA [U23G G73U]  0.0604
4. GGCCGGCAUGGUCCCAGCCUCCUCUCUGGCGCCGGCUGGGCAACAUUCCGAGGGGACCGUCCCCUCGGUAAUGGCGAAUGGGACCCC [G25U A87C]  0.0755
5. GGCCGGCAUGGUCCCAGCCUCCUCGCUGGCGCCGGCUGUGCAGCAUUCCGAGGGGACCGUCCCCUCGGUAAUGGCGAAUGGGACCCA [G39U A43G]  0.0811
6. GGCCGGCAUGGUCCCAGCCUCCUCUCUGGCGCCGGCUGGGCAACAUUCCGAGGGGACCGUCCCCUCGGUAAUGGCGAAUGGGACCCU [G25U A87U]  0.109
7. GGCCGGCAUGGUCCCAGCCUCCUCGCUGGCGCCGGCUGGCCAACAUUCCGAGGGGACCGUCCCCUCGGUAAUGGCGAUUGGGACCCA [G40C A78U]  0.122
8. GGCCGGCAUGGUCCCAGCCUCCUCGCUGGCGCCGGCUAGGCAACAUUCCGAGGGGACCGUCCCGUCGGUAAUGGCGAAUGGGACCCA [G38A C64G]  0.142
9. GGCCGGCAUGGUCCCAGCCUCCUCGCUGGCGCCGGCUGGGCAACAUUCCGAGGGGACCGUCCCCUCGGUAAUGGCGAAUGAGACUCA [G81A C85U]  0.163
10. GGCCGGCAUGGUCCCAGCCUCCUCGCUGGCGCCGGCUGGGCAACAAUCCGAGGGGACCGUCCCCUCGGUAAUGGCGAACGGGACCCA [U46A U79C]  0.215
11. GGCCGGCAUGGUCCCAGUCUCCUCGCUGGCGCCGGCUGGGCAACAUUCCGAGGGGACCGUCCCCUCGGUAAUGGCGAAUGGGCCCCA [C18U A83C]  0.227
12. GGCCGGCAUGGUCCCAGCCUCCCCGCUGGCGCCGGCUGGGCAGCAUUCCGAGGGGACCGUCCCCUCGGUAAUGGCGAAUGGGACCCA [U23C A43G]  0.277
13. GGCCGGCAUGGUCCCAGCCUCCUGGCUGGCGCCGGCUGGGCAACAUUCCGAGGGGACCGCCCCCUCGGUAAUGGCGAAUGGGACCCA [C24G U60C]  0.277
14. GGCCGGCAUGGCCCCAGCCUCCUCGCUGGCGCCGGCUGGGCAACAUUCCGAGGGGACCGUCCCCUCGGUUAUGGCGAAUGGGACCCA [U12C A70U]  0.378
15. GGCCGGCAUGGUCCCAGCCUCCCCGCUGGCGCCGGCUGGGCAAAAUUCCGAGGGGACCGUCCCCUCGGUAAUGGCGAAUGGGACCCA [U23C C44A]  0.462
16. GGCCGGCAUGGUCCCAGCCUCCUCGCUGGCGUCGGCUGGGCAACAUUCCGAGGGGACCGUCCCCUCGGUAAUGGCGAAUGGGGCCCA [C32U A83G]  0.501
17. GGCCGGCAUGGACCCAGCCUCCUCGCUGGCGCCGGCUGGGCAACAUUCCGAGGGGACCGUCCCCCCGGUAAUGGCGAAUGGGACCCA [U12A U65C]  0.506
18. GGCCGGCAUGGUCCCAGCCUCCUCGCUGGCGCCGGCUGGGCUACUUUCCGAGGGGACCGUCCCCUCGGUAAUGGCGAAUGGGACCCA [A42U A45U]  0.554
19. GGCCGGCAUGGUCCCGGCCUCCUCGCUGGCGCCGGCUGGGCAACAUUCCGAGGGGACCGUCCCCUCGGUAAUGGCGAAUGAGACCCA [A16G G81A]  0.604
20. GGCCGGCAUAGUCCCAGCCUCCUCGCUGGCGCCGGCUGGGCAACAUUCCAAGGGGACCGUCCCCUCGGUAAUGGCGAAUGGGACCCA [G10A G50A]  0.657
21. GGCCGGCAUGGUCCCCGCCUCCUCGCUGGCGCCGGCUGGGCAACAUUUCGAGGGGACCGUCCCCUCGGUAAUGGCGAAUGGGACCCA [A16C C48U]  0.677
22. GGCCGGCAUGGUCCCAGCCUCCUCGCUGGCGCCGGCUGGGCAACAUUCCGAGGAGACCGUCCCCUCGGUAAUGGCGAAUGGGGCCCA [G54A A83G]  0.692
23. GGCCGGCAUGGUCCCAGCCUCCUCGCUGGCGCCGGCUGGUCAACAUUCCGAGGGGAUCGUCCCCUCGGUAAUGGCGAAUGGGACCCA [G40U C57U]  0.712
24. GGCCGGCAUGGUCCCAGCCUCCUCGCUGGCGCCGGCUGGGCAACAUUCCGAGGGGACCGUCCGCUCGGUACUGGCGAAUGGGACCCA [C63G A71C]  0.782
25. GGCCGGCCUGGUCCCAGCCUCCUCGCUGGCGCCGGCUGGGCAACAUGCCGAGGGGACCGUCCCCUCGGUAAUGGCGAAUGGGACCCA [A8C U47G]  0.795
26. GGCCGGCAUGGUCGCAGCCUCCUCGCUGGCGCCGGCUGGGCAACAUUCCGAGUGGACCGUCCCCUCGGUAAUGGCGAAUGGGACCCA [C14G G53U]  0.802
27. GGCCGGCAUGGUCCCAGCCUCCUCGCUGGCGCCGGCUGGGCAACAUUGCGAGGGGACCCUCCCCUCGGUAAUGGCGAAUGGGACCCA [C48G G59C]  0.831
28. GGCCGGCAUGGUCCCAGCCUCCGCGCUGGCGCCGGCUGGGCAACAUUCCGAGGGGACCGUCCCGUCGGUAAUGGCGAAUGGGACCCA [U23G C64G]  0.95
29. GGCCGGCAUGGUCCCAGCCUCCCCGCUGGCGCCGGCUGGGCAACAUUCCGACGGGACCGUCCCCUCGGUAAUGGCGAAUGGGACCCA [U23C G52C]  1.01
30. GGCCGGCAUCGUCCCAGCCUCCUCGCUGGCGCCGGCUGGGCAACAUUCCGAUGGGACCGUCCCCUCGGUAAUGGCGAAUGGGACCCA [G10C G52U]  1.03
31. GGCCGGCAUGGUCCCAGCCUCCUCGCUGGCGCCGGCUGGGCAACAUUCCGAGGGGACCGUUCCCUCGGUAAUGGCGGAUGGGACCCA [C61U A77G]  1.12
32. GGCCGGCAUGGUCGCAGCCUCCUCGCGGGCGCCGGCUGGGCAACAUUCCGAGGGGACCGUCCCCUCGGUAAUGGCGAAUGGGACCCA [C14G U27G]  1.14

Source: the RNAGym collection of RNA variant scans (doi:10.7554/elife.80360)
